Patent US20100210517A1 (RAPTOR PHARMACEUTICAL, published 2010)
Numbering of substitutions follows the chain as printed.

Key:
LRP2 CR89 R1088D [1] = target: T1, LRP2 CR89 R1088D (human, UniProt P98164 1022-1105); assay: solid-phase binding assay, CR protein coated on plate, anti-RAP detection
T1 construct: also called YVWD

LRP2 CR89 V1047D = target: T2, LRP2 CR89 V1047D (human, UniProt P98164 1022-1105); assay: solid-phase assay on coated CR protein, anti-RAP detection, A450
T2 construct: also called YDWR
T2 sequence: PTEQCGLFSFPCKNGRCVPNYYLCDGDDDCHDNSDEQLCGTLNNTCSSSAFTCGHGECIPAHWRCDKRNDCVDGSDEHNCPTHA
Description: (§1) Solid phase binding assays-Purified, refolded CR protein (1 μg) was bound to Nunc Maxisorp™ 96-well plates in TBS pH 8 supplemented with 5 mM CaCl₂ (TBSC) overnight at 4° C. Wells were washed with TBSC and then blocked with TBSC containing 2% bovine serum albumin (BSA). […] Control wells contained no added ligand. As an additional control, to determine whether the absence of calcium affected binding, 10 mM EGTA was included in the incubation medium for some samples. […] Excess primary antibody was removed and wells washed before incubation with the secondary antibody, HRP-conjugated goat anti rabbit IgG (Bio-Rad). After washing, TMB substrate solutions (Bio-Rad) were added to detect HRP. Color development was stopped with 1N HCl. Absorption at 450 nm was measured with a microplate spectrophotometer (Molecular Devices). Data were plotted and Kd values derived by non-linear regression with the assumption of single-site binding (GraphPad Prism).
(§2) To test this idea, mutant LRP2 CR89 were prepared in which the native, non-canonical residues at these positions were sequentially substituted with the non-native, canonical residues. As defined above, the A, C, A′, C′ string for LRP2 CR89 is YVWR. Mutants included LRP2 CR89 Y1042W (WVWR), LRP2 CR89 V1047D (YDWR), LRP2 CR89 R1088D (YVWD), LRP2 CR89 V1047D R1088D (YDWD), LRP2 CR89 Y1042W V1047D R1088D (WDWD), LRP2 CR89 Y1042W V1047D (WDWR), LRP2 CR89 Y1042W R1088D (WVWD).

LRP2 CR89 V1047D R1088D [2] = target: T3, LRP2 CR89 V1047D R1088D (human, UniProt P98164 1022-1105); assay: as above
T3 construct: also called YDWD
T3 sequence: T2 sequence with R68D
Description: as §1, §2

[3] = target: T4, LRP2 CR89 Y1042W V1047D R1088D (human, UniProt P98164 1022-1105); assay: as above
T4 construct: also called WDWD
T4 chain: T2 sequence with Y22W, R68D
Description: as §1, §2

LRP2 CR89 Y1042W V1047D [4] = target: T5, LRP2 CR89 Y1042W V1047D (human, UniProt P98164 1022-1105); assay: as above
T5 construct: also called WDWR
T5 chain: T2 sequence with Y22W
Description: as §1, §2

LRP2 CR89 Y1042W R1088D [5] = target: T6, LRP2 CR89 Y1042W R1088D (human, UniProt P98164 1022-1105); assay: as above
T6 construct: also called WVWD
T6 chain: T2 sequence with Y22W, D27V, R68D
Description: as §1, §2

LRP2 CR89 [6] = target: T7, LRP2 CR89 (human, UniProt P98164 1025-1102); assay: solid-phase assay on coated CR protein, single-site non-linear fit
T7 construct: domain: CR89; also called YVWR; L2 CR89; not shown: N-terminal hexahistidine and S-peptide tags of pET30(+)a
Description: Data were plotted and fitted by non-linear regression with the assumption of a single binding site (GraphPad Prism). Kd values with standard deviations were derived from the regression analysis.
as §1

LRP2 CR89 [7] = target: T7, LRP2 CR89; assay: as above; remark: listed apart in the source
Description: as §1

LRP2 CR89 R1088D [8] = target: T1, LRP2 CR89 R1088D; assay: as above
Description: as §1

LRP1 CR3-5 = target: T8, LRP1 CR3-5 (human); assay: solid-phase assay; OD at the highest ligand concentration as percent of the highest OD of all ligands
T8 construct: range 852-973; also called L1 CR3-5
Description: as §1

LRP2 CR89 [9] = target: T7, LRP2 CR89; assay: as above
Description: as §1

LRP2 CR89 [10] = target: T7, LRP2 CR89; assay: as above; remark: listed apart in the source
Description: as §1, §2

LRP2 CR89 V1047D R1088D [11] = target: T3, LRP2 CR89 V1047D R1088D; assay: as above
Description: as §1, §2

[12] = target: T4, LRP2 CR89 Y1042W V1047D R1088D; assay: as above
Description: as §1, §2

LRP2 CR89 Y1042W V1047D [13] = target: T5, LRP2 CR89 Y1042W V1047D; assay: as above
Description: as §1, §2

LRP2 CR89 Y1042W R1088D [14] = target: T6, LRP2 CR89 Y1042W R1088D; assay: as above
Description: as §1, §2

LRP2 CR89 [15] = target: T7, LRP2 CR89; assay: apparent Kd of the variant for the CR pair used in selection; no unit printed in Table 4, nM per Table 2 and paragraph 292

T7 sequence (P98164 1025-1102): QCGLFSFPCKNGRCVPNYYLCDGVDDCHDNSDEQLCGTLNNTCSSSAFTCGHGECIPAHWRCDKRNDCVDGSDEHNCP
T8 sequence (Q07954 852-973): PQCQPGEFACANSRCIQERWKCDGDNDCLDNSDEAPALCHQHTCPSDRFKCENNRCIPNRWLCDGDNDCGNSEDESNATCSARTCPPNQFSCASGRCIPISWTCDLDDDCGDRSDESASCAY

fold loss of affinity relative to LRP2 CR89 (LRP2 CR89 R1088D [1]): ~2 fold | binding result (LRP2 CR89 V1047D): no binding (tested: 100 nM) | binding result (LRP2 CR89 V1047D R1088D [2]): no binding (tested: 100 nM) | binding result [3]: no binding (tested: 100 nM) | binding result (LRP2 CR89 Y1042W V1047D [4]): no binding (tested: 100 nM) | binding result (LRP2 CR89 Y1042W R1088D [5]): no binding (tested: 100 nM) | Kd (LRP2 CR89 [6]): 38 nM | Kd (LRP2 CR89 [7]): 33 nM | Kd (LRP2 CR89 R1088D [8]): 78 nM | % max (LRP1 CR3-5): 4% | % max (LRP2 CR89 [9]): 88% | % max bind (LRP2 CR89 [10]): 100% | % max bind (LRP2 CR89 V1047D R1088D [11]): 3% | % max bind [12]: 1% | % max bind (LRP2 CR89 Y1042W V1047D [13]): 3% | % max bind (LRP2 CR89 Y1042W R1088D [14]): 4% | Kd (LRP2 CR89 [15]): 38 nM
B1: MegaRAP1 d3 (ligand)
chain: LDRLRRVSHQGYTTEAKFEEPRVIDLWDLAQSANLTDKELEAFREELKYFKAKIEAHNHYQKQLEIAHEELRHAESVGDGERVSRSREKHALLEGRTKELGYTVKKHLQDLSGRISRAR
notes: V175L lies outside the d3 construct; also called RAPv2A d3; RAP v2 d3; not shown: N-terminal hexahistidine and S-peptide tags of pET30(+)a
